Measurements: patent US20250019412A1 (ALPINE IMMUNE SCIENCES, published 2025)
Substitutions are numbered along the chain they refer to. Where “and” joins values, the source holds several entries; their conditions need not be identical. Equal values may be shown once.

B1: 20 TACI CRD2-Fc (Fc fusion)
variant TACI domain - linker - Fc fusion chain: SLSCRKEQGKFYDHLLGDCISCASICGQHPKQCAYFCENKLRSGSGGGGSEPKSSDKTHTCPPCPAPEAEGAPSVFLFPPKPKDTLMISRTPEVTCVVVDVSHEDPEVKFNWYVDGVEVHNAKTKPREEQYNSTYRVVSVLTVLHQDWLNGKEYKCKVSNKALPAPIEKTISKAKGQPREPQVYTLPPSRDELTKNQVSLTCLVKGFYPSDIAVEWESNGQPENNYKTTPPVLDSDGSFFLYSKLTVDKSRWQQGNVFSCSVMHEALHNHYTQKSLSLSPG
B2: 31 TACI CRD2-Fc (Fc fusion)
variant TACI domain - linker - Fc fusion chain: B1 variant TACI domain - linker - Fc fusion chain with G17Q, S21N, A34D
B3: belimumab (antibody, V domains shown)
VH: QVQLQQSGAEVKKPGSSVRVSCKASGGTFNNNAINWVRQAPGQGLEWMGGIIPMFGTAKYSQNFQGRVAITADESTGTASMELSSLRSEDTAVYYCARSRDLLLFPHHALSPWGRGTMVTVSS
VL: SSELTQDPAVSVALGQTVRVTCQGDSLRSYYASWYQQKPGQAPVLVIYGKNNRPSGIPDRFSGSSSGNTASLTITGAQAEDEADYYCSSRDSSGNHWVFGGGTELTVLG
B4: Telitacicept (label of two rows of Table E29) (Fc fusion, not shown: a dimerising Fc or GST)
chain: SRVDQEERFPQGLWTGVAMRSCPEEQYWDPLLGTCMSCKTICNHQSQRTCAAFCRSLSCRKEQGKFYDHLLRDCISCASICGQHPKQCAYFCENKLRSPVNLPPEL

Legend:
[1] = target: recombinant human BAFF (human) (UniProt Q9Y275); experiment: cell-based or functional assay
[2] = target: T1, recombinant human APRIL (human, UniProt O75888 105-250, limits assumed); experiment: cell-based or functional assay
T1 sequence (looked up): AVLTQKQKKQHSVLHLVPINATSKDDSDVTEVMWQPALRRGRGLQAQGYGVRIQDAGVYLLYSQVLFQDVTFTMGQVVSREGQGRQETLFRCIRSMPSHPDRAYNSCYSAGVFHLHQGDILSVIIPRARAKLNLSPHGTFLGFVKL

[3] = target: recombinant human BAFF (human) (UniProt Q9Y275)
[4] = target: T2, recombinant human BAFF (human, UniProt Q9Y275 134-285); experiment: cell-based or functional assay
[5] = target: T1, recombinant human APRIL; experiment: cell-based or functional assay; remark: listed apart in the source
[6] = target: T2, recombinant human BAFF; experiment: cell-based or functional assay; remark: listed apart in the source
[7] = target: T2, recombinant human BAFF; experiment: cell-based or functional assay; remark: listed apart in the source

Molecule | BAFF IC50 (pM) [1] | BAFF IC50 (ΔWT) (fold of WT TACI (68-110)-Fc) [1] | APRIL IC50 (pM) [2] | APRIL IC50 (ΔWT) (fold of WT TACI (68-110)-Fc) [2] | also measured
BAFF-R ECD (from UniProt Q96RJ3 1-78) (receptor) | 53200 pM | 28.7 | – | – | –
TACI 13-118-Fc (Fc fusion) | 7900 pM | 4.26 | – | – | IC50 (nM) APRIL [2]: 7810 nM; IC50 APRIL (Δ TACI 30-110) (fold of TACI 30-110) [2]: 1.81; IC50 APRIL (Δ TACI 30-110-Fc) (fold of TACI 30-110-Fc) [2]: 2.37; IC50 (nM) BAFF [1]: 8450 nM; IC50 BAFF (Δ TACI 30-110) (fold of TACI 30-110) [1]: 1.88; IC50 BAFF (Δ TACI 30-110-Fc) (fold of TACI 30-110-Fc) [1]: 1.33
TACI 30-110-Fc (Fc fusion) | 7740 pM | 4.17 | – | – | IC50 (nM) APRIL [2]: 4320 nM; IC50 APRIL (Δ TACI 30-110) (fold of TACI 30-110) [2]: 1; IC50 APRIL (Δ TACI 30-110-Fc) (fold of TACI 30-110-Fc) [2]: 1; IC50 (nM) BAFF [1]: 4490 nM; IC50 BAFF (Δ TACI 30-110) (fold of TACI 30-110) [1]: 1; IC50 BAFF (Δ TACI 30-110-Fc) (fold of TACI 30-110-Fc) [1]: 1
TACI vTD-Fc A101D (SEQ ID NO: 23) (Fc fusion) | 1830 pM | 0.99 | 8380 pM | 0.68 | IC50 (read off the curve): blockade of human BAFF signalling via TACI (NF-κB luciferase reporter, Jurkat/NF-κB/TACI cells) [3]: 0.6 nM
TACI vTD-Fc A101D, Y102D (SEQ ID NO: 189) (Fc fusion) | 1950 pM | 1.05 | 33600 pM | 2.72 | –
TACI vTD-Fc F78Y (SEQ ID NO: 183) (Fc fusion) | 1640 pM | 0.88 | 176 pM | 0.01 | –
TACI vTD-Fc F78Y, A101D (SEQ ID NO: 185) (Fc fusion) | 1850 pM | 1 | 2020 pM | 0.16 | –
TACI vTD-Fc F78Y, R84Q (SEQ ID NO: 184) (Fc fusion) | 2260 pM | 1.22 | 2620 pM | 0.21 | –
TACI vTD-Fc F78Y, Y102D (SEQ ID NO: 186) (Fc fusion) | 1960 pM | 1.06 | 8490 pM | 0.69 | –
TACI vTD-Fc K77E (SEQ ID NO: 32) (Fc fusion) | 1540 pM | 0.83 | 159 pM | 0.01 | –
TACI vTD-Fc K77E, A101D (SEQ ID NO: 25) (Fc fusion) | 1960 pM | 1.06 | 2040 pM | 0.17 | IC50 (read off the curve): blockade of human BAFF signalling via TACI (NF-κB luciferase reporter, Jurkat/NF-κB/TACI cells) [3]: 0.6 nM
TACI vTD-Fc K77E, F78Y (SEQ ID NO: 191) (Fc fusion) | 1970 pM | 1.06 | 10100 pM | 0.82 | –
TACI vTD-Fc K77E, F78Y, R84Q (SEQ ID NO: 182) (Fc fusion) | 2210 pM | 1.19 | 10100 pM | 0.82 | –
TACI vTD-Fc K77E, R84Q (SEQ ID NO: 24) (Fc fusion) | 2260 pM | 1.22 | 4260 pM | 0.35 | IC50 (read off the curve): blockade of human BAFF signalling via TACI (NF-κB luciferase reporter, Jurkat/NF-κB/TACI cells) [3]: 0.6 nM
TACI vTD-Fc K77E, Y102D (SEQ ID NO: 192) (Fc fusion) | 2180 pM | 1.17 | 891 pM | 0.07 | –
TACI vTD-Fc Q75E (SEQ ID NO: 177) (Fc fusion) | 1460 pM | 0.79 | 1940 pM | 0.16 | –
TACI vTD-Fc Q75E, A101D (SEQ ID NO: 180) (Fc fusion) | 2360 pM | 1.27 | 20000 pM | 1.62 | –
TACI vTD-Fc Q75E, F78Y (SEQ ID NO: 179) (Fc fusion) | 1790 pM | 0.97 | 13400 pM | 1.09 | –
TACI vTD-Fc Q75E, K77E (SEQ ID NO: 178) (Fc fusion) | 1890 pM | 1.02 | 10700 pM | 0.87 | –
TACI vTD-Fc Q75E, Y102D (SEQ ID NO: 181) (Fc fusion) | – | – | 11100 pM | – | –
TACI vTD-Fc R84Q (SEQ ID NO: 30) (Fc fusion) | 5490 pM | 2.96 | 566 pM | 0.05 | IC50 (read off the curve): blockade of human BAFF signalling via TACI (NF-κB luciferase reporter, Jurkat/NF-κB/TACI cells) [3]: 1 nM
TACI vTD-Fc R84Q, A101D (SEQ ID NO: 187) (Fc fusion) | 2350 pM | 1.27 | 11200 pM | 0.91 | –
TACI vTD-Fc R84Q, Y102D (SEQ ID NO: 188) (Fc fusion) | 1860 pM | 1.01 | 12300 pM | 1 | –
TACI vTD-Fc Y102D (SEQ ID NO: 190) (Fc fusion) | – | – | 11600 pM | – | –
B1 | – | – | – | – | IC50 (read off the curve): blockade of human BAFF signalling via TACI (NF-κB luciferase reporter, Jurkat/NF-κB/TACI cells) [4]: ~0.7 nM
B2 | – | – | – | – | IC50 (read off the curve): blockade of human BAFF signalling via TACI (NF-κB luciferase reporter, Jurkat/NF-κB/TACI cells) [4]: ~0.6 nM
B3 | – | – | – | – | IC50 APRIL (Δ TACI 30-110-Fc) [5]: 55.8 fold of TACI 30-110-Fc; IC50 BAFF (Δ TACI 30-110-Fc) [6]: 0.43 fold of TACI 30-110-Fc; BAFF IC50 (pM) [7]: 2200 pM; BAFF IC50 (ΔWT) [7]: 1.18 fold of WT TACI (68-110)-Fc
B4 | 9170 pM and 7300 pM | 4.95 and 3.94 | – | – | –
